Results: patent US20100298202A1, “BRI POLYPEPTIDES AND REDUCING AB AGGREGATION” (MAYO FOUNDATION FOR MEDICAL EDUCATION AND RESEARCH, priority 2007, published 2010)

Target: Aβ42 (Homo sapiens, UniProt P05067)
Test: Aβ42 aggregation with oxidized or reduced BRI polypeptides (native gel/western blot, ELISA-based assay)
Assay type: biochemical
Settings: oxidized form (no DTT), 2 μM polypeptide, 1.5 μM Aβ42, 5 hours at 37° C.
Protocol: FIG. 10. […] BRI polypeptides in DMSO were diluted into 150 mM NaCl, 20 mM Tris-HCl, pH7.4 (TBS) at a final concentration of 2 μM in the absence (OX) or presence (RED) of 2 mM DTT. Mixtures were incubated for 10 minutes at room temperature and then chilled to 0° C. A control samples lacking any BRI polypeptide were prepared identically using DMSO alone. Aβ42 in DMSO then was added to a final concentration of 1.5 μM, and the mixtures divided into two aliquots. One aliquot was incubated for 5 hours at 0° C., and the other was incubated at 37° C. to induce Aβ42 aggregation. At the end of the incubation, all samples were returned to 0° C. to stop further aggregation prior to analysis. Aggregation was assessed either by native gel electrophoresis followed by western blotting (panel A) or by the ELISA-based assay (panel B).

Sequence of Aβ42 (P05067 672-713 limits assumed): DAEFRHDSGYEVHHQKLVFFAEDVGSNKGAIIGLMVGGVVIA

Substance	Aβ42 aggregation in vitro
Bri25: C-terminal fragment of BRI3 (ITM2C), GAICNCNAIRHFENTFVVETLICGVV (SEQ ID NO: 6)	inhibit Aβ42 aggregation
Bri24: C-terminal fragment of BRI1 (ITM2A), AIDKCWKIRHFPNEFIVETICICQD (SEQ ID NO: 5)	inhibit Aβ42 aggregation
